Laboratory results taken from patent US20050249750A1.
Where no end group is shown, it is not given here.

T1: DR molecule DRA1*0101/DRB1*0401 on transfected murine L cells (human), P01903
T1 chain 1: not shown
T1 chain 2: not shown

T2: DR molecule DRA1*0101/DRB1*0701 on transfected murine L cells (human), P01903
T2 chain 1: not shown
T2 chain 2: not shown

T3: soluble DR 8 (DRB1*0801) class II molecules purified from BM9 EBV-B cells (human), P01903
T3 chain 1: not shown
T3 chain 2: not shown

T4: soluble DR 7 (DRB1*0701) class II molecules purified from EKR EBV-B cells (human), P01903
T4 chain 1: not shown
T4 chain 2: not shown

T5: soluble DR 3 (DRB1*0301) class II molecules purified from WT49 EBV-B cells (human), P01903
T5 chain 1: not shown
T5 chain 2: not shown

T6: soluble DR4 (DRB1*0401) class II molecules purified from BSM or PREISS EBV-B cells (human), P01903
T6 chain 1: not shown
T6 chain 2: not shown

T7: soluble DR 2a (DRB5*0101) molecules isolated from L cells transfectant L416.3 (human), P01903
T7 chain 1: not shown
T7 chain 2: not shown

T8: soluble DR 1 (DRB1*0101) class II molecules purified from HOM-2 EBV-B cells (human), P01903
T8 chain 1: not shown
T8 chain 2: not shown


Assays:
[1] = target: T1, DR molecule DRA1*0101/DRB1*0401 on …; assay: FACS, biotinylated peptide 100 µg/ml on DR-transfected murine L cells
[2] = target: T2, DR molecule DRA1*0101/DRB1*0701 on …; assay: as above
[3] = target: T3, soluble DR 8 (DRB1*0801) class II …; assay: peptide competition ELISA, soluble DR 8, biotinylated indicator GYR(A)6L
[4] = target: T4, soluble DR 7 (DRB1*0701) class II …; assay: peptide competition ELISA, soluble DR 7, biotinylated indicator GFK(A)7, pH 5
[5] = target: T5, soluble DR 3 (DRB1*0301) class II …; assay: peptide competition ELISA, soluble DR 3, biotinylated indicator IAYD(A)5
[6] = target: soluble DR 11 (DRB1*1101) class II molecules purified from SWEIG EBV-B cells (human), P01903; assay: peptide competition ELISA, soluble DR 11, biotinylated indicator TT831-843
[7] = target: T6, soluble DR4 (DRB1*0401) class II …; assay: peptide competition ELISA, soluble DR4, biotinylated indicator GFK(A)7
[8] = target: T7, soluble DR 2a (DRB5*0101) molecules …
[9] = target: T6, soluble DR4 (DRB1*0401) class II …; assay: peptide competition ELISA, soluble DR 4, biotinylated indicator UD4
[10] = target: T8, soluble DR 1 (DRB1*0101) class II …; assay: peptide competition ELISA, soluble DR 1, biotinylated indicator GFK(A)7

| Binder | MFC (mean fluorescence channel) [1] [MFC] | MFC (mean fluorescence channel) [2] [MFC] | IC50 [3] [µM] | IC50 [4] [µM] | IC50 [5] [µM] | IC50 [6] [µM] | IC50 [7] [µM] | IC50 [8] [µM] | IC50 [9] [µM] | IC50 [10] [µM] |
| --- | --- | --- | --- | --- | --- | --- | --- | --- | --- | --- |
| DPNANPNVDPNANPNV (not fully specified (N-terminus)) [NH2 terminal biotinylated T1 peptide] | 18.9 | 35.7 | – | – | – | – | – | – | – | – |
| DPNANPNVDPNANPNV (modifications not checked) | – | – | > 100 | > 100 | > 100 | > 100 | > 100 | > 100 | > 100 | > 100 |
